One block for each molecule: values may come before it.
Key:
[1] = biological target: Glycine receptor β subunit (native heteromeric GlyR, 4α:1β) (Sus scrofa, UniProt A0A4X1TUM3+Q6KBX4); assay: cryo-EM structure; format: binding
[2] = biological target: recombinant pig GlyR α1 subunit without fluorophore (pig); assay: cryo-EM structure
[3] = biological target: T1, recombinant pig GlyR α1 subunit without fluorophore (pig); assay: cryo-EM structure
T1 chain: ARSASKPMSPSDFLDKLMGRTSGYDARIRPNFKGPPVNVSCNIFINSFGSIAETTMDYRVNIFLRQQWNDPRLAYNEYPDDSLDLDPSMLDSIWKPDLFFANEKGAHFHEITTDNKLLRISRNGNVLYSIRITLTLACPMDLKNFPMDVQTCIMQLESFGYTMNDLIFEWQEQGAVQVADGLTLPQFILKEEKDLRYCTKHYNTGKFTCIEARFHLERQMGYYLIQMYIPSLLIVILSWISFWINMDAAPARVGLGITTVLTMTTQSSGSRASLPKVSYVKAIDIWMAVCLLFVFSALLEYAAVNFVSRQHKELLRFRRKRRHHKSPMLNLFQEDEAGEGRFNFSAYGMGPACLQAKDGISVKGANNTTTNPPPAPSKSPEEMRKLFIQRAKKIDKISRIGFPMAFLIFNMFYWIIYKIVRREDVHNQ

[4] = biological target: T2, recombinant pig GlyR α1 subunit tagged with YFP (pig); assay: SEC
T2 chain: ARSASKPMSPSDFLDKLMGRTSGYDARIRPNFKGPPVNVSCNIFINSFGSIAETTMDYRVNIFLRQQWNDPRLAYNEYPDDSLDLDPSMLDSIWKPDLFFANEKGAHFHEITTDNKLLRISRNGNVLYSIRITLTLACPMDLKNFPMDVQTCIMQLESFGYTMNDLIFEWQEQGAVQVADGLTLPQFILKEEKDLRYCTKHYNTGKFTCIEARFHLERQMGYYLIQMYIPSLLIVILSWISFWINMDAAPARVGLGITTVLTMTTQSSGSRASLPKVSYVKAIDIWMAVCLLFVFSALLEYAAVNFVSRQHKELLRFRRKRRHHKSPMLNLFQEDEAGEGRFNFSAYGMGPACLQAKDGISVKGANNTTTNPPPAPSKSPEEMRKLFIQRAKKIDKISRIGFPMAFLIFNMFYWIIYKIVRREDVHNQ

Molecule: NCC(=O)O [glycine]
cryo-EM structure (2.7 Å) [1]: formed between the hydroxyl moiety of βY231 and the carboxyl group of glycine

stoichiometry N (α subunits per β subunit) [2]: 4
Molecule: recombinant pig GlyR β subunit without fluorophore (receptor)

binding result [3]: binds | binding result [4]: binds
B1: anti-GlyR α 3D1 Fab (Fab, V domains shown)
VH: QVQLQQSGAELMKPGAAVKISCKATGHTISRYWIDWLKQRPGHGLEWIGEILPGSGSTNYNEKFKGKATFTAEKSSNTAYMQLSSLTSEDSAVYYCAMGVRGNYFDYWGQGTTLTVSS
VL: DIVMTQSHKFMSTSVGDRVSITCKASQDVSTAVAWYQQKPGQSPKLLIYWASTRHTGVPGRFTGSGSGTDYTLTISSVQAEDLSLYYCQQHYSTPRTFGGGTKLEIK

From paper PMC8647860 (Nature, 2021)
